Article PMC6781444

Target: 80S ribosome (rabbit (endogenous in reticulocyte lysate))
Test: co-sedimentation

Row | Substance | fold reduction of cosedimentation against WT SR [fold]
1 | SRdC, SRαβΔTM with the CBR of SRα (residues 129–176) replaced with (GS)6 (from UniProt P08240;Q9Y5M8) (complex) | > 2
2 | SRdR, SRαβΔTM with the RBR of SRα (residues 205–250) replaced with (GS)6 (from UniProt P08240;Q9Y5M8) (complex) | > 2
